Each block holds one binder with its values, some of them ahead of it.
B1: GST-mGFP-SH3BP2-FLAG (natural protein)
chain: MAAEEMQWPVPMKAIGAQNLLTMPGGVAKAGYLHKKGGTQLQLLKWPLRFVIIHKRCIYYFKSSTSASPQGAFSLSGYNRVMRAAEETTSNNVFPFKIIHISKKHRTWFFSASSEDERKSWMAFVRREIGHFHEKKELPLDTSDSSSDTDSFYGAVERPIDISLSSYPMDNEDYEHEDEDDSYLEPDSPGPMKLEDALTYPPAYPPPPVPVPRKPAFSDLPRAHSFTSKSPSPLLPPPPPKRGLPDTGSAPEDAKDALGLRRVEPGLRVPATPRRMSDPPMSNVPTVPNLRKHPCFRDSVNPGLEPWTPGHGTSSVSSSTTMAVATSRNCDKLKSFHLSSRGPPTSEPPPVPANKPKFLKIAEEPSPREAAKFAPVPPVAPRPPVQKMPMPEATVRPAVLPRPENTPLPHLQRSPPDGQSFRGFSFEKARQPSQADTGEEDSDEDYEKVPLPNSVFVNTTESCEVERLFKATDPRGEPQDGLYCIRNSSTKSGKVLVVWDESSNKVRNYRIFEKDSKFYLEGEVLFASVGSMVEHYHTHVLPSHQSLLLRHPYGYAGPR

Experiments:
sedimentation assay = target: the molecule itself; assay: sedimentation assay
[1] = target: T1, SH3BP2-FLAG (full-length) (mouse, UniProt Q06649 1-559); assay: co-IP
T1 sequence: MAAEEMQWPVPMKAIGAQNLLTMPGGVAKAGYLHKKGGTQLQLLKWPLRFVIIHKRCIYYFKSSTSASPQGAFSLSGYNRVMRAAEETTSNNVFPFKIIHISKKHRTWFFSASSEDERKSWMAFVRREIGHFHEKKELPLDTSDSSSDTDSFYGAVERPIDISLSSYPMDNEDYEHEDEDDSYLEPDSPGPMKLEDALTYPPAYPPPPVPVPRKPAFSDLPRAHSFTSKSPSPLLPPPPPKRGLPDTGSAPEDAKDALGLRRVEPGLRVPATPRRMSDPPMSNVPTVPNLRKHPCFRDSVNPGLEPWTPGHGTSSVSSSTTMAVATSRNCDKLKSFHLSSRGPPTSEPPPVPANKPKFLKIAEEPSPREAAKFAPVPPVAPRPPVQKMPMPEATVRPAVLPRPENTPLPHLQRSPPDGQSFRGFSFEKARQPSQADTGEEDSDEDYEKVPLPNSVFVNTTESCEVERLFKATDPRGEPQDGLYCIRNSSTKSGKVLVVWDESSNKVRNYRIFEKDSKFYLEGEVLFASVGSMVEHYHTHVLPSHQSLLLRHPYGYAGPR

GST-mGFP-SH3BP2-FLAG = target: B1; assay: recruitment into protein droplets

Binder: B1
binding result (sedimentation assay): binds

binding result [1]: binds
B2: GST-cytAChRα (domain or fragment)
chain: NTHHRSPSTHIMPEWVRKVFIDTIPNIMFFSTMKRPSRDKQEKRIFTEDIDISDISGKPGPPPMGFHSPLIKHPEVKSAIEGVKYIAETMKSDQESNNAAEEWKYVAMVMDH

binding result (GST-mGFP-SH3BP2-FLAG): binds
B3: GST-cytAChRα-mCherry (domain or fragment)
chain: NTHHRSPSTHIMPEWVRKVFIDTIPNIMFFSTMKRPSRDKQEKRIFTEDIDISDISGKPGPPPMGFHSPLIKHPEVKSAIEGVKYIAETMKSDQESNNAAEEWKYVAMVMDH

Source: doi:10.1101/2024.05.23.595491 (bioRxiv, 2024)
